Key:
Experiment in all cases: cell-based or functional assay
[1] = target: HIV-1 Env of pseudovirus 1054_07_TC4_1499 (HIV-1)
[2] = target: HIV-1 Env of pseudovirus 263-8 (HIV-1)
[3] = target: HIV-1 Env of pseudovirus 6535.3 (HIV-1)
[4] = target: HIV-1 Env of pseudovirus 928-28 (HIV-1)
[5] = target: HIV-1 Env of pseudovirus CNE17 (HIV-1)
[6] = target: HIV-1 Env of pseudovirus CNE19 (HIV-1)
[7] = target: HIV-1 Env of pseudovirus CNE58 (HIV-1)
[8] = target: HIV-1 Env of pseudovirus Ce0682_E4 (HIV-1)
[9] = target: HIV-1 Env of pseudovirus Ce1086_B2 (HIV-1)
[10] = target: HIV-1 Env of pseudovirus Ce1172_H1 (HIV-1)
[11] = target: HIV-1 Env of pseudovirus Ce2010_F5 (HIV-1)
[12] = target: HIV-1 Env of pseudovirus Ce2060_G9 (HIV-1)
[13] = target: HIV-1 Env of pseudovirus Du156.12 (HIV-1)
[14] = target: HIV-1 Env of pseudovirus HIV-16845-2.22 (HIV-1)
[15] = target: HIV-1 Env of pseudovirus MS208.A1 (HIV-1)
[16] = target: HIV-1 Env of pseudovirus PVO.4 (HIV-1)
[17] = target: HIV-1 Env of pseudovirus Q259.d2.17 (HIV-1)
[18] = target: HIV-1 Env of pseudovirus Q461.e2 (HIV-1)
[19] = target: HIV-1 Env of pseudovirus Q769.d22 (HIV-1)
[20] = target: HIV-1 Env of pseudovirus Q842.d12 (HIV-1)
[21] = target: HIV-1 Env of pseudovirus QH0692.42 (HIV-1)
[22] = target: HIV-1 Env of pseudovirus WEAU_d15_410_787 (HIV-1)
[23] = target: HIV-1 Env of pseudovirus ZM109F.PB4 (HIV-1)
[24] = target: HIV-1 Env of pseudovirus ZM247v1(Rev-) (HIV-1)
[25] = target: HIV-1 Env of pseudovirus ZM249M.PL1 (HIV-1)

## 10-1074 (antibody)
[1]
  IC50, titer in TZM.bl cells: 0.129 µg/mL
  IC80, titer in TZM.bl cells: 0.563 µg/mL
[2]
  IC50, titer in TZM.bl cells: 0.666 µg/mL
  IC80, titer in TZM.bl cells: 6.53 µg/mL
[3]
  IC50, titer in TZM.bl cells: 0.014 µg/mL
  IC80, titer in TZM.bl cells: 0.026 µg/mL
[4]
  IC50, titer in TZM.bl cells: 0.847 µg/mL
  IC80, titer in TZM.bl cells: 4.7 µg/mL
[5]
  IC50, titer in TZM.bl cells: 2.69 µg/mL
  IC80, titer in TZM.bl cells: 13.3 µg/mL
[6]
  IC50, titer in TZM.bl cells: 50 µg/mL
  IC80, titer in TZM.bl cells: > 50 µg/mL
[7]
  IC50, titer in TZM.bl cells: 0.267 µg/mL
  IC80, titer in TZM.bl cells: 0.968 µg/mL
[8]
  IC50, titer in TZM.bl cells: > 50 µg/mL
  IC80, titer in TZM.bl cells: > 50 µg/mL
[9]
  IC50, titer in TZM.bl cells: > 50 µg/mL
  IC80, titer in TZM.bl cells: > 50 µg/mL
[10]
  IC50, titer in TZM.bl cells: 0.047 µg/mL
  IC80, titer in TZM.bl cells: 0.166 µg/mL
[11]
  IC50, titer in TZM.bl cells: > 50 µg/mL
  IC80, titer in TZM.bl cells: > 50 µg/mL
[12]
  IC50, titer in TZM.bl cells: > 50 µg/mL
  IC80, titer in TZM.bl cells: > 50 µg/mL
[13]
  IC50, titer in TZM.bl cells: 0.015 µg/mL
  IC80, titer in TZM.bl cells: 0.076 µg/mL
[14]
  IC50, titer in TZM.bl cells: 1.17 µg/mL
  IC80, titer in TZM.bl cells: 5.83 µg/mL
[15]
  IC50, titer in TZM.bl cells: > 50 µg/mL
  IC80, titer in TZM.bl cells: > 50 µg/mL
[16]
  IC50, titer in TZM.bl cells: 0.074 µg/mL
  IC80, titer in TZM.bl cells: 0.36 µg/mL
[17]
  IC50, titer in TZM.bl cells: > 50 µg/mL
  IC80, titer in TZM.bl cells: > 50 µg/mL
[18]
  IC50, titer in TZM.bl cells: > 50 µg/mL
  IC80, titer in TZM.bl cells: > 50 µg/mL
[19]
  IC50, titer in TZM.bl cells: > 50 µg/mL
  IC80, titer in TZM.bl cells: > 50 µg/mL
[20]
  IC50, titer in TZM.bl cells: > 50 µg/mL
  IC80, titer in TZM.bl cells: > 50 µg/mL
[21]
  IC50, titer in TZM.bl cells: 0.191 µg/mL
  IC80, titer in TZM.bl cells: 0.929 µg/mL
[22]
  IC50, titer in TZM.bl cells: 0.104 µg/mL
  IC80, titer in TZM.bl cells: 0.375 µg/mL
[23]
  IC50, titer in TZM.bl cells: > 50 µg/mL
  IC80, titer in TZM.bl cells: > 50 µg/mL
[24]
  IC50, titer in TZM.bl cells: 0.042 µg/mL
  IC80, titer in TZM.bl cells: 0.186 µg/mL
[25]
  IC50, titer in TZM.bl cells: > 50 µg/mL
  IC80, titer in TZM.bl cells: > 50 µg/mL

## 10E8 (antibody)
[1]
  IC50, titer in TZM.bl cells: 0.046 µg/mL
  IC80, titer in TZM.bl cells: 0.305 µg/mL
[2]
  IC50, titer in TZM.bl cells: 0.196 µg/mL
  IC80, titer in TZM.bl cells: 1.73 µg/mL
[3]
  IC50, titer in TZM.bl cells: 0.081 µg/mL
  IC80, titer in TZM.bl cells: 1.32 µg/mL
[4]
  IC50, titer in TZM.bl cells: 0.384 µg/mL
  IC80, titer in TZM.bl cells: 1.96 µg/mL
[5]
  IC50, titer in TZM.bl cells: 1.11 µg/mL
  IC80, titer in TZM.bl cells: 5.25 µg/mL
[6]
  IC50, titer in TZM.bl cells: 0.666 µg/mL
  IC80, titer in TZM.bl cells: 6.49 µg/mL
[7]
  IC50, titer in TZM.bl cells: 1.29 µg/mL
  IC80, titer in TZM.bl cells: 8.27 µg/mL
[8]
  IC50, titer in TZM.bl cells: 1.22 µg/mL
  IC80, titer in TZM.bl cells: 7.71 µg/mL
[9]
  IC50, titer in TZM.bl cells: 1.16 µg/mL
  IC80, titer in TZM.bl cells: 6.93 µg/mL
[10]
  IC50, titer in TZM.bl cells: 0.722 µg/mL
  IC80, titer in TZM.bl cells: 4.82 µg/mL
[11]
  IC50, titer in TZM.bl cells: 1.84 µg/mL
  IC80, titer in TZM.bl cells: 8.61 µg/mL
[12]
  IC50, titer in TZM.bl cells: 3.52 µg/mL
  IC80, titer in TZM.bl cells: > 10 µg/mL
[13]
  IC50, titer in TZM.bl cells: 0.034 µg/mL
  IC80, titer in TZM.bl cells: 0.144 µg/mL
[14]
  IC50, titer in TZM.bl cells: 0.068 µg/mL
  IC80, titer in TZM.bl cells: 0.495 µg/mL
[15]
  IC50, titer in TZM.bl cells: 0.609 µg/mL
  IC80, titer in TZM.bl cells: 3.72 µg/mL
[16]
  IC50, titer in TZM.bl cells: 0.747 µg/mL
  IC80, titer in TZM.bl cells: > 10 µg/mL
[17]
  IC50, titer in TZM.bl cells: 4.59 µg/mL
  IC80, titer in TZM.bl cells: > 10 µg/mL
[18]
  IC50, titer in TZM.bl cells: 2.11 µg/mL
  IC80, titer in TZM.bl cells: > 10 µg/mL
[19]
  IC50, titer in TZM.bl cells: 1.67 µg/mL
  IC80, titer in TZM.bl cells: 10 µg/mL
[20]
  IC50, titer in TZM.bl cells: 4.19 µg/mL
  IC80, titer in TZM.bl cells: > 10 µg/mL
[21]
  IC50, titer in TZM.bl cells: 0.442 µg/mL
  IC80, titer in TZM.bl cells: 4.05 µg/mL
[22]
  IC50, titer in TZM.bl cells: > 10 µg/mL
  IC80, titer in TZM.bl cells: > 10 µg/mL
[23]
  IC50, titer in TZM.bl cells: 0.295 µg/mL
  IC80, titer in TZM.bl cells: 1.89 µg/mL
[24]
  IC50, titer in TZM.bl cells: 0.506 µg/mL
  IC80, titer in TZM.bl cells: 6.75 µg/mL
[25]
  IC50, titer in TZM.bl cells: 1.51 µg/mL
  IC80, titer in TZM.bl cells: 6.29 µg/mL

## N49P19 (antibody)
[1]
  IC50: 2.85 µg/mL
  IC80: 11.7 µg/mL
  MPI: 99
[3]
  IC50: 9.09 µg/mL
  IC80: 28.3 µg/mL
  MPI: 95
[5]
  IC50: > 50 µg/mL
  IC80: > 50 µg/mL
  MPI: 30
[6]
  IC50: 20.7 µg/mL
  IC80: > 50 µg/mL
  MPI: 59
[7]
  IC50: > 50 µg/mL
  IC80: > 50 µg/mL
  MPI: 43
[8]
  IC50: 0.607 µg/mL
  IC80: 2.32 µg/mL
  MPI: 98
[9]
  IC50: 0.613 µg/mL
  IC80: 2.68 µg/mL
  MPI: 97
[10]
  IC50: > 50 µg/mL
  IC80: > 50 µg/mL
  MPI: 3
[11]
  IC50: 7.66 µg/mL
  IC80: 45.4 µg/mL
  MPI: 82
[12]
  IC50: 1.06 µg/mL
  IC80: 5.62 µg/mL
  MPI: 98
[13]
  IC50: 2.17 µg/mL
  IC80: 17 µg/mL
  MPI: 87
[14]
  IC50: 14.5 µg/mL
  IC80: > 50 µg/mL
  MPI: 73
[15]
  IC50: 0.501 µg/mL
  IC80: 1.99 µg/mL
  MPI: 99
[16]
  IC50: 0.85 µg/mL
  IC80: 2.95 µg/mL
  MPI: 100
[17]
  IC50: > 50 µg/mL
  IC80: > 50 µg/mL
  MPI: 11
[18]
  IC50: 0.774 µg/mL
  IC80: 4.05 µg/mL
  MPI: 100
[19]
  IC50: 0.14 µg/mL
  IC80: 0.519 µg/mL
  MPI: 100
[20]
  IC50: 0.182 µg/mL
  IC80: 0.601 µg/mL
  MPI: 100
[21]
  IC50: 2.56 µg/mL
  IC80: 13.4 µg/mL
  MPI: 98
[22]
  IC50: 0.177 µg/mL
  IC80: 0.612 µg/mL
  MPI: 100
[23]
  IC50: 0.282 µg/mL
  IC80: 2.66 µg/mL
  MPI: 92
[24]
  IC50: > 50 µg/mL
  IC80: > 50 µg/mL
  MPI: 5
[25]
  IC50: > 50 µg/mL
  IC80: > 50 µg/mL
  MPI: 33

— patent US20230002480A1
